Here are results for 3 molecules from PMC5009064 (Cell Reports, 2016).

Assay [1] deals with T1, HOIP-PUB domain (Homo sapiens, UniProt Q96EP0).
T1 sequence (Q96EP0 71-142 limits assumed): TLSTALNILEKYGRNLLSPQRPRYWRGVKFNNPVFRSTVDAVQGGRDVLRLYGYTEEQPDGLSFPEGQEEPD
The assay is described as follows: ITC of HOIP-PUB domain titrated into peptide or protein. To be noted: 398 μM HOIP-PUB domain titrated into CYLD-USP domain at 40 μM; 293 K; 25 mM HEPES (pH 7.5), 150 mM NaCl, 0.5 mM TCEP. The format is binding. The method, then: (B) ITC characterization of the interactions between (A) the HOIP-PUB domain (597 μM) and a peptide derived from the PIM motif (58 μM) of OTULIN and (B) the HOIP-PUB domain (398 μM) and the CYLD-USP domain (40 μM). For each titration, the raw data and normalized integrated heats are reported. (C) HEK293 cells were transfected with different combinations of CYLD, SPATA2, and OTULIN together with FLAG-HOIP. Protein complexes were subsequently purified using anti-FLAG beads and analyzed by western blotting. (D) SPATA2 expression was suppressed in FLAG-HOIP transfected HEK293 cells using siRNA. FLAG-HOIP was subsequently immunoprecipitated and tested for associated proteins by western blot analysis. (E) A549 cells were transfected with control or SPATA2 siRNA. After 72 hr, cells were subjected to TNFR1-SC purification and analyzed by western blotting. […] They name protein/peptide pairs, not small molecules. / Panel B, Kd: the lowered letter after K is small; read as d.
Samples were subsequently analyzed by western blotting. (B) HOIP-deficient A549 cells were reconstituted with HOIP-WT or HOIP-N102A. […] Samples were analyzed by western blotting. […] Following anti-GFP IP, SPATA association with HOIP and CYLD was evaluated by western blot analysis. […] Bound GST-containing protein was subsequently detected by HRP immunofluorescence, and the signal of both membranes was overlaid. […]

Assay [2] addresses T2, HOIP-PUB domain (UniProt Q96EP0 71-142).
T2 chain: T1 sequence (Q96EP0 71-142 limits assumed)
The assay is described as follows: ITC.

Assay [3] has as its target T3, HOIP-PUB domain (UniProt Q96EP0 71-142).
T3 construct: PUB domain of HOIP, as used for ITC; also called PUB domain of HOIP
T3 sequence (looked up): T1 sequence (Q96EP0 71-142 limits assumed)
Description: ITC; 293 K, ITC-200; 25 mM HEPES pH 7.5, 150 mM NaCl, 0.5 mM TCEP; 20 injections of 2 ul HOIP-PUB domain into peptide or domain in the cell; 1:1 binding model. The following applies: both partners purified.

B1: CYLD-USP: USP domain of CYLD, protein domain titrated by ITC (protein)
chain: KGIQGHYNSCYLDSTLFCLFAFSSVLDTVLLRPKEKNDVEYYSETQELLRTEIVNPLRIYGYVCATKIMKLRKILEKVEAASGFTSEEKDPEEFLNILFHHILRVEPLLKIRSAGQKVQDCYFYQIFMEKNEKVGVPTIQQLLEWSFINSNLKFAEAPSCLIIQMPRFGKDFKLFKKIFPSLELNITDLLEDTPRQCRICGGLAMYECRECYDDPDISAGKIKQFCKTCNTQVHLHPKRLNHKYNPVSLPKDLPDWDWRHGCIPCQNMELFAVLCIETSHYVAFVKYGKDDSAWLFFDSMADRDGGQNGFNIPQVTPCPEVGEYLKMSLEDLHSLDSRRIQGCARRLLCDAYMCMYQSP
With B1, in the assay with HOIP-PUB domain [1], the “direct interaction by ITC” value was “could not detect a direct interaction”.
AEHEEDMYRA [peptide derived from the PIM motif of OTULIN]: the affinity in the assay with HOIP-PUB domain [2], expressed as Kd, was 3200 nM.

B2: peptide derived from the C-terminal region of SPATA2 (peptide)
peptide: RGTYFSTQDDVDLYTDSEPR
notes: SPATA2 PIM peptide; also called SPATA2 peptide; PIM of SPATA2
Take B2: the Kd with HOIP-PUB domain [3] was 900 nM.
